Sequences and labels used below:
B1: chimeric B-Ly1 antibody chB-Ly1 (antibody, V domains shown)
VH: EVKLQQSGPELVKPGASVKISCKASGYAFSYSWMNWVKLRPGQGLEWIGRIFPGDGDTDYNGKFKGKATLTADKSSNTAYMQLTSLTSVDSAVYLCARNVFDGYWLVYWGQGTLVTVSA
VL: DIVLTQTTNPVTLGTSASISCRSSKSLLHSNGITYLYWYLQKPGQSPQLLIYQMSNLVSGVPDRFSSSGSGTDFTLRISRVEAEDVGVYYCAQNLELPYTFGGGTKLEIKR
notes: also called parental antibody B-Ly1; copies: 2 + 2
B2: B-HH1 complexed with the humanized B-Ly1 light chain (KV1) (antibody, human IgG1, V domains shown)
VH: QVQLVQSGAEVKKPGSSVKVSCKASGYTFSYSWMSWVRQAPGQGLEWMGRIFPGDGDTDYAQKFQGRVTITADKSTSTAYMELSSLRSEDTAVYYCARNVFDGYWLVYWGQGTLVTVSS
VL: DIVMTQTPLSLPVTPGEPASISCRSSKSLLHSNGITYLYWYLQKPGQSPQLLIYQMSNLVSGVPDRFSGSGSGTDFTLKISRVEAEDVGVYYCAQNLELPYTFGGGTKVEIKR
notes: also called BHH1-KV1
B3: BHL11-KV1 (antibody, human IgG1, V domains shown)
VH: QVQLVESGGGLVKPGGSLRLSCAASGFTFSYSWMNWVRQAPGKGLEWVGRIFPGDGDTDYNGKFKGRVTITADKSTSTAYMELSSLRSEDTAVYYCARNVFDGYWLVYWGQGTLVTVSS
VL: DIVMTQTPLSLPVTPGEPASISCRSSKSLLHSNGITYLYWYLQKPGQSPQLLIYQMSNLVSGVPDRFSGSGSGTDFTLKISRVEAEDVGVYYCAQNLELPYTFGGGTKVEIKR
notes: B-HL8 with the single mutation Glu1Gln
B4: B-HH1 (as compared in FIG. 12; light chain not stated) (antibody, V domains shown)
VH: QVQLVQSGAEVKKPGSSVKVSCKASGYTFSYSWMSWVRQAPGQGLEWMGRIFPGDGDTDYAQKFQGRVTITADKSTSTAYMELSSLRSEDTAVYYCARNVFDGYWLVYWGQGTLVTVSS
VL: DIVMTQTPLSLPVTPGEPASISCRSSKSLLHSNGITYLYWYLQKPGQSPQLLIYQMSNLVSGVPDRFSGSGSGTDFTLKISRVEAEDVGVYYCAQNLELPYTFGGGTKVEIK
B5: B-HH3 complexed with the humanized B-Ly1 light chain (KV1) (antibody, human IgG1, V domains shown)
VH: QVQLVQSGAEVKKPGSSVKVSCKASGYAFSYSWMNWVRQAPGQGLEWMGRIFPGDGDTDYNGKFKGRVTITADKSTSTAYMELSSLRSEDTAVYLCARNVFDGYWLVYWGQGTLVTVSS
VL: DIVMTQTPLSLPVTPGEPASISCRSSKSLLHSNGITYLYWYLQKPGQSPQLLIYQMSNLVSGVPDRFSGSGSGTDFTLKISRVEAEDVGVYYCAQNLELPYTFGGGTKVEIKR
notes: also called BHH3-KV1
B6: BHH2-KV1 humanized IgG1 B-Ly1 anti-human CD20 antibody (non-glycoengineered) (antibody, V domains shown)
VH: QVQLVQSGAEVKKPGSSVKVSCKASGYAFSYSWMNWVRQAPGQGLEWMGRIFPGDGDTDYNGKFKGRVTITADKSTSTAYMELSSLRSEDTAVYYCARNVFDGYWLVYWGQGTLVTVSS
VL: DIVMTQTPLSLPVTPGEPASISCRSSKSLLHSNGITYLYWYLQKPGQSPQLLIYQMSNLVSGVPDRFSGSGSGTDFTLKISRVEAEDVGVYYCAQNLELPYTFGGGTKVEIKR
notes: also called BHH2-KV1-wt
B7: BHL8-KV1 (antibody, human IgG1, V domains shown)
VH: EVQLVESGGGLVKPGGSLRLSCAASGFTFSYSWMNWVRQAPGKGLEWVGRIFPGDGDTDYNGKFKGRVTITADKSTSTAYMELSSLRSEDTAVYYCARNVFDGYWLVYWGQGTLVTVSS
VL: DIVMTQTPLSLPVTPGEPASISCRSSKSLLHSNGITYLYWYLQKPGQSPQLLIYQMSNLVSGVPDRFSGSGSGTDFTLKISRVEAEDVGVYYCAQNLELPYTFGGGTKVEIKR

For this experiment, the target named is T1, human CD20 (human, UniProt P11836 1-297).
T1 construct: whole, on cells; also called human CD20 antigen; Bp35
T1 sequence (looked up): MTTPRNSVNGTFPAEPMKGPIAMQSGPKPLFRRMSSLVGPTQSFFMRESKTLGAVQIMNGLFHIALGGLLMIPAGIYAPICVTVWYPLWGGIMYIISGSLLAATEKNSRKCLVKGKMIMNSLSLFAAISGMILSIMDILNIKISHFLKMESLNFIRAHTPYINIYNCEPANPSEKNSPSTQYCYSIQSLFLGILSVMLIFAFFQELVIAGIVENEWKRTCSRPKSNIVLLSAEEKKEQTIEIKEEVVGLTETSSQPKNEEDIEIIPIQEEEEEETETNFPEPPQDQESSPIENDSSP
As to the kind of experiment: flow cytometry on Raji cells. In general terms: Flow cytometry measures light scatter and fluorescence of single cells or particles in a stream.
Description: 500.000 in 180 μl FACS buffer (PBS containing 2% FCS and 5 mM EDTA) were transferred to 5 ml polystyrene tubes and 20 ul 10 fold concentrated anti-CD20 antibody samples (1-5000 ng/ml final concentration) or PBS only were added and the tubes were incubated at 4° C. for 30 min. Subsequently, samples were washed twice with FACS buffer and pelleted at 300×g for 3 min. Supernatant was aspirated off and cells were taken up in 100 μl FACS buffer and 1 μl anti-Fc-specific F(ab′)₂—FITC fragments (Jackson Immuno Research Laboratories, USA) was added and the tubes were incubated at 4° C. for 30 min. Samples were washed twice with FACS buffer and taken up in 500 μl of FACS buffer containing 0.5 μg/ml PI for analysis by Flow Cytometry. Binding was determined by plotting the geometric mean fluorescence against the antibody concentrations.
As to B1, the binding result was “binds”.

Consider B2, for which the binding result is “binds”.

For the molecule B3, the binding result is “binds”.

With B4, the “binding intensity/stoichiometry compared to B-Ly1” value is ~0.5 fold of chB-Ly1.

B5: the binding result is given as “binds”.

On to B6, for which the binding result is “binds”.

As for B7, the binding result was “binds”.

Values taken from US20050123546A1 (Hoffmann-La Roche, published 2005).
